B1: Hairpin Ribozyme (parent)
chain: GUCCUCUUUCACGUGCGCGUGAAAGAGAGAAGUGAACCAGAGAAACACACGUUGUGGUAUAUUACCUGGUA

Variants of: B1
Test: self-cleavage, relative activity (ratio to wild type); higher = more cleavage; co-transcriptional

Q: Which self-cleavage does the source give for A26U U33A here?
A: 0.148

Q: With A28U A36C as the variant, how does the self-cleavage read?
A: 0.286

Q: Which self-cleavage does the source give for G27U A43U here?
A: 0.106

Q: For A28U U52C, which self-cleavage is on record?
A: 0.768

Q: For A28U U52A, which self-cleavage is on record?
A: 0.423

Q: For A28U G40A, which self-cleavage is on record?
A: 0.175

Q: With G27C A59U as the variant, how does the self-cleavage read?
A: 0.16

Q: Which self-cleavage does the source give for G27A C65U here?
A: 0.145

Q: Which self-cleavage does the source give for G27A C65A here?
A: 0.396

Q: With A26G A59U as the variant, how does the self-cleavage read?
A: 0.233

Q: With A26G U70A as the variant, how does the self-cleavage read?
A: 1.06

Q: For A26G U70G, which self-cleavage is on record?
A: 0.81

Q: With G27A U70G as the variant, how does the self-cleavage read?
A: 0.227

Q: With A28C A71C as the variant, how does the self-cleavage read?
A: 1.05

Q: With A28C A71G as the variant, how does the self-cleavage read?
A: 0.457

Q: With A28C A71U as the variant, how does the self-cleavage read?
A: 0.291

Q: Which self-cleavage does the source give for A26U A49U here?
A: 0.0963

Q: Which self-cleavage does the source give for A26U A49G here?
A: 0.41

Q: For G27A G57C, which self-cleavage is on record?
A: 0.184

Q: For A26U U53G, which self-cleavage is on record?
A: 0.489

Q: With A28U A59G as the variant, how does the self-cleavage read?
A: 0.243

Q: Which self-cleavage does the source give for A26U G54C here?
A: 0.305

Q: For A28G C37A, which self-cleavage is on record?
A: 0.504

Q: For A28G C37G, which self-cleavage is on record?
A: 0.36

Q: For A26U C66A, which self-cleavage is on record?
A: 0.146

Q: Which self-cleavage does the source give for A26U C66U here?
A: 0.276

Q: Which self-cleavage does the source give for G27A C66A here?
A: 0.204

Q: For A26U C38G, which self-cleavage is on record?
A: 0.109

Q: With A26U C38U as the variant, how does the self-cleavage read?
A: 0.409

Q: Which self-cleavage does the source give for G27C A45G here?
A: 0.19

Q: Which self-cleavage does the source give for G27C A45U here?
A: 0.202

Q: With A28U A31G as the variant, how does the self-cleavage read?
A: 0.325

Q: With A28U A61U as the variant, how does the self-cleavage read?
A: 0.12

Q: For A28U A61C, which self-cleavage is on record?
A: 0.18

Q: Which self-cleavage does the source give for A26U C37A here?
A: 0.243

Q: For A26U C37G, which self-cleavage is on record?
A: 0.185

Q: With G27A U52G as the variant, how does the self-cleavage read?
A: 0.431

Q: For G27A U52C, which self-cleavage is on record?
A: 0.477

Q: Which self-cleavage does the source give for A28C C37A here?
A: 0.166

Q: With G27A G29U as the variant, how does the self-cleavage read?
A: 0.126

Q: With A28U C48U as the variant, how does the self-cleavage read?
A: 0.251

Q: Which self-cleavage does the source give for A28U C48A here?
A: 0.131

Q: With A28C C48U as the variant, how does the self-cleavage read?
A: 0.124

Q: With A26U A30U as the variant, how does the self-cleavage read?
A: 0.11

Q: With A26U G27C as the variant, how does the self-cleavage read?
A: 0.177

Q: Which self-cleavage does the source give for A26U U67C here?
A: 0.176

Q: For A26G C66G, which self-cleavage is on record?
A: 0.353

Q: Which self-cleavage does the source give for G27A C37G here?
A: 0.15

Q: With A28G A35U as the variant, how does the self-cleavage read?
A: 1.13

Q: Which self-cleavage does the source give for A28C U67C here?
A: 0.146

Q: With A26U A71G as the variant, how does the self-cleavage read?
A: 0.781

Q: Which self-cleavage does the source give for G27C U70C here?
A: 0.132

Q: Which self-cleavage does the source give for G27C U70A here?
A: 0.319

Q: With A28U A71U as the variant, how does the self-cleavage read?
A: 0.371

Q: Which self-cleavage does the source give for A28U A71C here?
A: 1.1

Q: For G27C A61U, which self-cleavage is on record?
A: 0.119

Q: For A28G G57U, which self-cleavage is on record?
A: 0.36

Q: Which self-cleavage does the source give for A28G G57A here?
A: 0.19

Q: Which self-cleavage does the source give for G27U U62C here?
A: 0.191

Q: For A28U G42C, which self-cleavage is on record?
A: 0.0977

Q: With A28U G42U as the variant, how does the self-cleavage read?
A: 0.218

Q: With A28U U33G as the variant, how does the self-cleavage read?
A: 0.104

Q: For A28U G32C, which self-cleavage is on record?
A: 0.175

Q: For A28U G32A, which self-cleavage is on record?
A: 0.234

Q: Which self-cleavage does the source give for A28G G34U here?
A: 1.65

Q: Which self-cleavage does the source give for A28G G34C here?
A: 0.999

Q: For G27C U62A, which self-cleavage is on record?
A: 0.205

Q: For A26G C46G, which self-cleavage is on record?
A: 0.19

Q: With A26G A45C as the variant, how does the self-cleavage read?
A: 0.135

Q: Which self-cleavage does the source give for A28U G57U here?
A: 0.235

Q: For A28C C38A, which self-cleavage is on record?
A: 0.205

Q: With G27A G69C as the variant, how does the self-cleavage read?
A: 0.198

Q: For G27A A64U, which self-cleavage is on record?
A: 0.174

Q: With G27A A44C as the variant, how does the self-cleavage read?
A: 0.143

Q: With G27A A44U as the variant, how does the self-cleavage read?
A: 0.139

Q: For G27A A31U, which self-cleavage is on record?
A: 0.153

Q: With G27A A31G as the variant, how does the self-cleavage read?
A: 0.221

Q: For A28C A31C, which self-cleavage is on record?
A: 0

Q: With G27U G68A as the variant, how does the self-cleavage read?
A: 0.128

Q: For G27A A71G, which self-cleavage is on record?
A: 0.545

Q: Which self-cleavage does the source give for A28U C50A here?
A: 0.213

Q: With A28U C50G as the variant, how does the self-cleavage read?
A: 0.173

Q: With A28G G40U as the variant, how does the self-cleavage read?
A: 0.19

Q: With G27U U58C as the variant, how does the self-cleavage read?
A: 0.318

Q: For A28U G34A, which self-cleavage is on record?
A: 0.873

Q: Which self-cleavage does the source give for G27A G68C here?
A: 0.215

Q: For G27A G68U, which self-cleavage is on record?
A: 0.184

Q: Which self-cleavage does the source give for A28U A41C here?
A: 1.13

Q: For A28U U53G, which self-cleavage is on record?
A: 0.432

Q: Which self-cleavage does the source give for A26U C50U here?
A: 0.261

Q: Which self-cleavage does the source give for A28G C46G here?
A: 0.134

Q: Which self-cleavage does the source give for A26U G40C here?
A: 0.0803

Q: For A28C G40C, which self-cleavage is on record?
A: 0.0679

Q: Which self-cleavage does the source give for A28C G40U here?
A: 0.101

Q: Which self-cleavage does the source give for G27C A47G here?
A: 0.125

Q: For A28G A44U, which self-cleavage is on record?
A: 0.142

Q: For A28C A43G, which self-cleavage is on record?
A: 0.129

Q: For G27C A30G, which self-cleavage is on record?
A: 0.172

Q: Which self-cleavage does the source give for A28G G42A here?
A: 0.21

Q: For G27C G42C, which self-cleavage is on record?
A: 0.165

Q: For G27C G42A, which self-cleavage is on record?
A: 0.148

Q: For A28G G69C, which self-cleavage is on record?
A: 0.46

Q: With A26G G56C as the variant, how does the self-cleavage read?
A: 0.14

Q: Which self-cleavage does the source give for A26G G56U here?
A: 0.151

Q: For A28C G32A, which self-cleavage is on record?
A: 0.172

Q: For A26U G32U, which self-cleavage is on record?
A: 0.202

Q: For A26U C46G, which self-cleavage is on record?
A: 0.317

Q: Which self-cleavage does the source give for A28U A43G here?
A: 0.0987

Q: With G27U G51C as the variant, how does the self-cleavage read?
A: 0.158

Q: With A26U A45G as the variant, how does the self-cleavage read?
A: 0.168

Q: For A26U A45U, which self-cleavage is on record?
A: 0.245

Q: Which self-cleavage does the source give for A26U U52G here?
A: 0.442

Q: With G27A A28U as the variant, how does the self-cleavage read?
A: 0.393

Q: Which self-cleavage does the source give for A28G G32U here?
A: 0.0347

Q: Which self-cleavage does the source give for A28G G32A here?
A: 0.236

Q: For G27A C38U, which self-cleavage is on record?
A: 0.2

Q: For G27U C48G, which self-cleavage is on record?
A: 0.137

Q: For G27U A45U, which self-cleavage is on record?
A: 0.0868

Q: With G27U A45G as the variant, how does the self-cleavage read?
A: 0.131

Q: With G27U A45C as the variant, how does the self-cleavage read?
A: 0.0886

Q: For G27A U53C, which self-cleavage is on record?
A: 0.64

Q: With G27A U53G as the variant, how does the self-cleavage read?
A: 0.518

Q: Which self-cleavage does the source give for A28G C65G here?
A: 0.409

Q: With A28G C65A as the variant, how does the self-cleavage read?
A: 0.884

Q: Which self-cleavage does the source give for A28G U58A here?
A: 0.653

Q: Which self-cleavage does the source give for A26U A41C here?
A: 0.776

Q: Which self-cleavage does the source give for A26G U55C here?
A: 0.206

Q: For A26G U55G, which self-cleavage is on record?
A: 0.153

Q: With G27A A43U as the variant, how does the self-cleavage read?
A: 0.052

Q: For A28G A59U, which self-cleavage is on record?
A: 0.32

Q: Which self-cleavage does the source give for G27A G40C here?
A: 0.104

Q: For G27U U55G, which self-cleavage is on record?
A: 0.224

Q: With G27U U55C as the variant, how does the self-cleavage read?
A: 0.113

Q: For G27C C38A, which self-cleavage is on record?
A: 0.116

Q: For G27A G54C, which self-cleavage is on record?
A: 0.105

Q: Which self-cleavage does the source give for A28C A35G here?
A: 0.445

Q: For A28C A35U, which self-cleavage is on record?
A: 0.295

Q: For A28C A35C, which self-cleavage is on record?
A: 0.864

Q: Which self-cleavage does the source give for A26U G57C here?
A: 0.123

Q: For A26U G57A, which self-cleavage is on record?
A: 0.184

Q: With G27A A49C as the variant, how does the self-cleavage read?
A: 0.154

Q: Which self-cleavage does the source give for G27A A49U here?
A: 0.112

Q: Which self-cleavage does the source give for G27A A49G here?
A: 0.237

Q: Which self-cleavage does the source give for G27A G42C here?
A: 0.145

Q: With A28C A36G as the variant, how does the self-cleavage read?
A: 0.552

Q: For A28C A36U, which self-cleavage is on record?
A: 0.302

Q: Which self-cleavage does the source give for A28C A36C here?
A: 0.32

Q: With G27A C50U as the variant, how does the self-cleavage read?
A: 0.124

Q: For A28G A47U, which self-cleavage is on record?
A: 0.192

Q: For A28G A47C, which self-cleavage is on record?
A: 0.42

Q: For A26U A36U, which self-cleavage is on record?
A: 0.414

Q: With A26U A36C as the variant, how does the self-cleavage read?
A: 0.343

Q: Which self-cleavage does the source give for G27C U67C here?
A: 0.103

Q: Which self-cleavage does the source give for G27U A35G here?
A: 0.228

Q: Which self-cleavage does the source give for G27U A64U here?
A: 0.129

Q: For G27U A64C, which self-cleavage is on record?
A: 0.173

Q: For A26G G51C, which self-cleavage is on record?
A: 0.78

Q: With A26G G51U as the variant, how does the self-cleavage read?
A: 0.9

Q: For A26G G51A, which self-cleavage is on record?
A: 0.938

Q: With A26G U52G as the variant, how does the self-cleavage read?
A: 0.721

Q: With A26G U52C as the variant, how does the self-cleavage read?
A: 0.822

Q: For A28U A30U, which self-cleavage is on record?
A: 0.136

Q: With A26G G57U as the variant, how does the self-cleavage read?
A: 0.252

Q: Which self-cleavage does the source give for A28C G54U here?
A: 0.262

Q: Which self-cleavage does the source give for G27U U70C here?
A: 0.105

Q: For A28U U58G, which self-cleavage is on record?
A: 0.416

Q: With G27C A71C as the variant, how does the self-cleavage read?
A: 0.53
